In series [1] the target is T1, NS3h (NS3 helicase domain) (Dengue virus serotype 2 (infectious …, UniProt O09234 1646-2093)). Briefly: competition.
Series [2] deals with T1, NS3h (NS3 helicase domain). Nature of the series: fluorescence titration.
For series [3], the target named is T1, NS3h (NS3 helicase domain). Briefly: EMSA.
Series [4] concerns the target T1, NS3h (NS3 helicase domain). Nature of the series: competition. The source holds these as a separate data set.
Series [5] has as its target T1, NS3h (NS3 helicase domain). Briefly: competition. The source holds these as a separate data set.
Series [6] addresses T1, NS3h (NS3 helicase domain). Nature of the series: competition. The source holds these as a separate data set.

The values that follow come from paper PMC4191397.

For AGUUGAGUUGAGUUG (ssRNA) [R15], the Ka in series [1] is 7.4 ± 0.2 10^6 M-1.
As to AGUUGAGUUGAG (ssRNA) [F-p-R12], in series [2], the Ka was 20.8 ± 0.5 10^6 M-1.
Consider AGTTGAGTTGAGTTGAGTTG (ssDNA) [F-p-D20], for which, in series [3], the binding result is listed as “no binding”.
With AGUUGAGUUG (ssRNA) [F-p-R10], in series [2], the Ka was 11.3 ± 0.1 10^6 M-1.
In the case of UUUUUUUUUUUU (ssRNA) [(U)12], in series [4], the binding result is given as “no binding”.
Take AGUUGAGUUGAGUUGAGUUG (ssRNA) [R20]: the Ka in series [5] was 16.7 ± 0.7 10^6 M-1; in series [6] it was 0.6 ± 0.1 10^6 M-1.
For AGUUGAGUUG (ssRNA) [R10], the Ka in series [1] is 1.69 ± 0.04 10^6 M-1.
As to AGUUGAGUUGAG (ssRNA) [R12], in series [1], the Ka was 2.64 ± 0.06 10^6 M-1.
Turning to AGUUGAGUUGAGUUGAGU (ssRNA) [R18], the Ka in series [1] was 11.5 ± 0.3 10^6 M-1.
